Tested on: Escherichia coli TOP10
Test: shrunken log2 fold change of peptide-encoding DNA abundance (4.5 h post-induction vs induction); higher = less antimicrobial activity (less host growth inhibition)
Settings: time post-induction: 4.5 h; library: site-saturation at positions 5, 18, 19, 20
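Note: peptides expressed intracellularly from a pBAD plasmid library in pooled LB shake-flask culture, induced with 0.3% L-arabinose, DNA abundance read by NGS, three biological replicates, DESeq2 with apeglm shrinkage.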

Row | Sequence | shrunken log2 fold change
1 | RRIRERPPRLPRPRPRPWCNPRP | -0.112
2 | RRIRERPPRLPRPRPRPWDHPRP | -0.204
3 | RRIRERPPRLPRPRPRPWDMPRP | -0.212
4 | RRIRERPPRLPRPRPRPWECPRP | -0.0135
5 | RRIRERPPRLPRPRPRPWFEPRP | -0.0941
6 | RRIRERPPRLPRPRPRPWFTPRP | -0.187
7 | RRIRERPPRLPRPRPRPWHLPRP | -0.349
8 | RRIRERPPRLPRPRPRPWLHPRP | -0.262
9 | RRIRERPPRLPRPRPRPWLWPRP | 0.239
10 | RRIRERPPRLPRPRPRPWLYPRP | 0.102
11 | RRIRERPPRLPRPRPRPWMNPRP | -0.0137
12 | RRIRERPPRLPRPRPRPWNNPRP | -0.653
13 | RRIRERPPRLPRPRPRPWPFPRP | -0.0819
14 | RRIRERPPRLPRPRPRPWPMPRP | 0.00819
15 | RRIRERPPRLPRPRPRPWPRPRP | 0.223
16 | RRIRERPPRLPRPRPRPWQVPRP | 0.0371
17 | RRIRERPPRLPRPRPRPWTEPRP | 0.027
18 | RRIRERPPRLPRPRPRPWVEPRP | 0.0665
19 | RRIRERPPRLPRPRPRPYASPRP | -0.303
20 | RRIRERPPRLPRPRPRPYAYPRP | -0.000687
21 | RRIRERPPRLPRPRPRPYCPPRP | -1.59
22 | RRIRERPPRLPRPRPRPYCTPRP | -1.13
23 | RRIRERPPRLPRPRPRPYEPPRP | 0.029
24 | RRIRERPPRLPRPRPRPYFNPRP | -0.583
25 | RRIRERPPRLPRPRPRPYHAPRP | 0.00489

Row | Sequence | shrunken log2 fold change
26 | RRIRERPPRLPRPRPRPYHHPRP | -1.56
27 | RRIRERPPRLPRPRPRPYILPRP | -2.27
28 | RRIRERPPRLPRPRPRPYIQPRP | -0.184
29 | RRIRERPPRLPRPRPRPYKYPRP | 0.686
30 | RRIRERPPRLPRPRPRPYLWPRP | -0.431
31 | RRIRERPPRLPRPRPRPYMQPRP | -0.326
32 | RRIRERPPRLPRPRPRPYPMPRP | -0.172
33 | RRIRERPPRLPRPRPRPYQAPRP | 0.019
34 | RRIRERPPRLPRPRPRPYQQPRP | -0.228
35 | RRIRERPPRLPRPRPRPYTPPRP | -1
36 | RRIRERPPRLPRPRPRPYTYPRP | -0.0595
37 | RRIRERPPRLPRPRPRPYVQPRP | -0.0184
38 | RRIRERPPRLPRPRPRPYVSPRP | -0.672
39 | RRIRERPPRLPRPRPRPYWMPRP | -0.438
40 | RRIRERPPRLPRPRPRPYYVPRP | -0.559
41 | RRIRFRPPRLPRPRPRPADYPRP | -0.207
42 | RRIRFRPPRLPRPRPRPAFAPRP | 0.33
43 | RRIRFRPPRLPRPRPRPAFKPRP | -0.347
44 | RRIRFRPPRLPRPRPRPAFRPRP | 0.132
45 | RRIRFRPPRLPRPRPRPAFYPRP | -0.249
46 | RRIRFRPPRLPRPRPRPAIYPRP | -0.999
47 | RRIRFRPPRLPRPRPRPAKAPRP | 0.26
48 | RRIRFRPPRLPRPRPRPAKLPRP | -0.263
49 | RRIRFRPPRLPRPRPRPAKTPRP | -0.0138
50 | RRIRFRPPRLPRPRPRPALQPRP | -0.142

Row | Sequence | shrunken log2 fold change
51 | RRIRFRPPRLPRPRPRPAMKPRP | -0.345
52 | RRIRFRPPRLPRPRPRPAMLPRP | 0.0665
53 | RRIRFRPPRLPRPRPRPAMYPRP | -0.246
54 | RRIRFRPPRLPRPRPRPANMPRP | 0.321
55 | RRIRFRPPRLPRPRPRPAPEPRP | 0.81
56 | RRIRFRPPRLPRPRPRPAQLPRP | 0.36
57 | RRIRFRPPRLPRPRPRPAREPRP | 0.612
58 | RRIRFRPPRLPRPRPRPASHPRP | 0.0492
59 | RRIRFRPPRLPRPRPRPASRPRP | 0.128
60 | RRIRFRPPRLPRPRPRPAWEPRP | 0.62
61 | RRIRFRPPRLPRPRPRPAYLPRP | -0.649
62 | RRIRFRPPRLPRPRPRPCAEPRP | 0.111
63 | RRIRFRPPRLPRPRPRPCAPPRP | -0.121
64 | RRIRFRPPRLPRPRPRPCCVPRP | -0.189
65 | RRIRFRPPRLPRPRPRPCDDPRP | -0.00233
66 | RRIRFRPPRLPRPRPRPCDEPRP | 0.112
67 | RRIRFRPPRLPRPRPRPCDFPRP | -0.255
68 | RRIRFRPPRLPRPRPRPCDPPRP | -0.0886
69 | RRIRFRPPRLPRPRPRPCDQPRP | -0.0178
70 | RRIRFRPPRLPRPRPRPCEAPRP | 0.122
71 | RRIRFRPPRLPRPRPRPCEIPRP | -0.348
72 | RRIRFRPPRLPRPRPRPCEVPRP | -0.0179
73 | RRIRFRPPRLPRPRPRPCFIPRP | -0.564
74 | RRIRFRPPRLPRPRPRPCHIPRP | -0.11
75 | RRIRFRPPRLPRPRPRPCHYPRP | -0.211

Row | Sequence | shrunken log2 fold change
76 | RRIRFRPPRLPRPRPRPCIDPRP | 0.255
77 | RRIRFRPPRLPRPRPRPCILPRP | -0.0567
78 | RRIRFRPPRLPRPRPRPCIVPRP | -0.637
79 | RRIRFRPPRLPRPRPRPCKAPRP | -0.0248
80 | RRIRFRPPRLPRPRPRPCPEPRP | -0.2
81 | RRIRFRPPRLPRPRPRPCPPPRP | -0.131
82 | RRIRFRPPRLPRPRPRPCPVPRP | -0.618
83 | RRIRFRPPRLPRPRPRPCQIPRP | -0.0143
84 | RRIRFRPPRLPRPRPRPCSNPRP | -0.0316
85 | RRIRFRPPRLPRPRPRPCSWPRP | -0.349
86 | RRIRFRPPRLPRPRPRPCTPPRP | -0.158
87 | RRIRFRPPRLPRPRPRPCTSPRP | -0.0377
88 | RRIRFRPPRLPRPRPRPCVFPRP | -0.0936
89 | RRIRFRPPRLPRPRPRPCVGPRP | -0.433
90 | RRIRFRPPRLPRPRPRPCVTPRP | -0.492
91 | RRIRFRPPRLPRPRPRPCWDPRP | -0.0535
92 | RRIRFRPPRLPRPRPRPDAAPRP | 0.681
93 | RRIRFRPPRLPRPRPRPDADPRP | 0.386
94 | RRIRFRPPRLPRPRPRPDAKPRP | 0.417
95 | RRIRFRPPRLPRPRPRPDATPRP | 0.486
96 | RRIRFRPPRLPRPRPRPDCCPRP | -0.0954
97 | RRIRFRPPRLPRPRPRPDDLPRP | 0.00489
98 | RRIRFRPPRLPRPRPRPDEEPRP | -0.00623
99 | RRIRFRPPRLPRPRPRPDEVPRP | -0.00705
100 | RRIRFRPPRLPRPRPRPDFLPRP | -0.453

Row | Sequence | shrunken log2 fold change
101 | RRIRFRPPRLPRPRPRPDFRPRP | 0.00564
102 | RRIRFRPPRLPRPRPRPDGNPRP | -0.174
103 | RRIRFRPPRLPRPRPRPDGPPRP | 0.0689
104 | RRIRFRPPRLPRPRPRPDGQPRP | -0.0411
105 | RRIRFRPPRLPRPRPRPDHRPRP | 0.0119
106 | RRIRFRPPRLPRPRPRPDKTPRP | -0.0318
107 | RRIRFRPPRLPRPRPRPDMRPRP | -0.000242
108 | RRIRFRPPRLPRPRPRPDNNPRP | -0.4
109 | RRIRFRPPRLPRPRPRPDRIPRP | 0.0156
110 | RRIRFRPPRLPRPRPRPDRTPRP | -0.0783
111 | RRIRFRPPRLPRPRPRPDTKPRP | -0.123
112 | RRIRFRPPRLPRPRPRPDTPPRP | 1.5
113 | RRIRFRPPRLPRPRPRPDWWPRP | -0.0896
114 | RRIRFRPPRLPRPRPRPDYGPRP | -0.238
115 | RRIRFRPPRLPRPRPRPDYNPRP | -0.422
116 | RRIRFRPPRLPRPRPRPDYQPRP | -0.268
117 | RRIRFRPPRLPRPRPRPDYSPRP | -0.458
118 | RRIRFRPPRLPRPRPRPEASPRP | 0.0218
119 | RRIRFRPPRLPRPRPRPECHPRP | 0.0585
120 | RRIRFRPPRLPRPRPRPEDMPRP | 0.000714
121 | RRIRFRPPRLPRPRPRPEDPPRP | 0.379
122 | RRIRFRPPRLPRPRPRPEECPRP | -0.0175
123 | RRIRFRPPRLPRPRPRPEEKPRP | -0.0254
124 | RRIRFRPPRLPRPRPRPEKLPRP | -0.0722
125 | RRIRFRPPRLPRPRPRPELAPRP | 0.0952

Row | Sequence | shrunken log2 fold change
126 | RRIRFRPPRLPRPRPRPEMAPRP | 0.635
127 | RRIRFRPPRLPRPRPRPEMVPRP | -0.143
128 | RRIRFRPPRLPRPRPRPEPTPRP | 0.805
129 | RRIRFRPPRLPRPRPRPEPVPRP | 0.326
130 | RRIRFRPPRLPRPRPRPEQDPRP | 1.57
131 | RRIRFRPPRLPRPRPRPEQYPRP | -0.234
132 | RRIRFRPPRLPRPRPRPERRPRP | 0.166
133 | RRIRFRPPRLPRPRPRPFAKPRP | -0.026
134 | RRIRFRPPRLPRPRPRPFCLPRP | -0.467
135 | RRIRFRPPRLPRPRPRPFEMPRP | -0.0734
136 | RRIRFRPPRLPRPRPRPFENPRP | -0.0822
137 | RRIRFRPPRLPRPRPRPFEWPRP | -0.0458
138 | RRIRFRPPRLPRPRPRPFGMPRP | -0.223
139 | RRIRFRPPRLPRPRPRPFHMPRP | -0.116
140 | RRIRFRPPRLPRPRPRPFLAPRP | -0.486
141 | RRIRFRPPRLPRPRPRPFLHPRP | -0.329
142 | RRIRFRPPRLPRPRPRPFLQPRP | -0.408
143 | RRIRFRPPRLPRPRPRPFMFPRP | -0.739
144 | RRIRFRPPRLPRPRPRPFPSPRP | -0.179
145 | RRIRFRPPRLPRPRPRPFRAPRP | 0.0466
146 | RRIRFRPPRLPRPRPRPFRHPRP | 0.0504
147 | RRIRFRPPRLPRPRPRPFSHPRP | -1.36
148 | RRIRFRPPRLPRPRPRPFSPPRP | -1.12
149 | RRIRFRPPRLPRPRPRPFSTPRP | -0.0736
150 | RRIRFRPPRLPRPRPRPFTGPRP | -0.246

Source: the supplement of paper PMC9112550, “Optimization of the antimicrobial peptide Bac7 by deep mutational scanning” (BMC Biology, 2022)
